Laboratory results published in PMC4159567, “Aggregation-prone c9FTD/ALS poly(GA) RAN-translated proteins cause neurotoxicity by inducing ER stress” (Acta Neuropathologica, 2014).

Target: the molecule itself
Test: gel and Western blot of high molecular weight species; purified recombinant GST-(GA)50 beside GST alone (Online Resource 1a); samples heated in Laemmli's buffer

B1: recombinant GST-(GA)50 protein (other, human)
chain: GAGAGAGAGAGAGAGAGAGAGAGAGAGAGAGAGAGAGAGAGAGAGAGAGAGAGAGAGAGAGAGAGAGAGAGAGAGAGAGAGAGAGAGAGAGAGAGAGAGA
notes: poly(GA) c9RAN dipeptide repeat, 50 repeats; (GA)50 cDNA in pGEX-6P-1 (BamHI/XhoI); RAN-translated from the G4C2 repeat of C9ORF72, not part of the C9ORF72 protein; also called poly(GA); source: E. coli Rosetta(DE3)pLysS, purified (Glutathione Sepharose 4B, eluted with glutathione, dialysed); not shown: GST, N-terminal, kept
binding result: binds
